The data set concerns the molecule itself. Kind of data set: cryo-EM structure; YES(T23P) complex (EcMraY(T23P), protein E, SlyD) co-expressed and purified in DDM; 5 mg/ml in 10 mM HEPES pH 7.5, 75 mM NaCl, 2% glycerol, 5 mM βME, 0.03% DDM, 1 mM E. coli total lipid extract; focused refinement of MraY alone after particle subtraction, final map 3.8 Å.

B1: E. coli MraY(T23P) (enzyme)
chain: MLVWLAEHLVKYYSGFNVFSYLPFRAIVSLLTALFISLWMGPRMIAHLQKLSFGQVVRNDGPESHFSKRGTPTMGGIMILTAIVISVLLWAYPSNPYVWCVLVVLVGYGVIGFVDDYRKVVRKDTKGLIARWKYFWMSVIALGVAFALYLAGKDTPATQLVVPFFKDVMPQLGLFYILLAYFVIVGTGNAVNLTDGLDGLAIMPTVFVAGGFALVAWATGNMNFASYLHIPYLRHAGELVIVCTAIVGAGLGFLWFNTYPAQVFMGDVGSLALGGALGIIAVLLRQEFLLVIMGGVFVVETLSVILQVGSFKLRGQRIFRMAPIHHHYELKGWPEPRVIVRFWIISLMLVLIGLATLKVR
notes: MraY of E. coli, integral membrane enzyme that forms lipid I; The methods name the plasmid pRSFDuetEcMraY-E_(ID21) without the T23P change; also called ^EcMraY(T23P); MraY of the YES(T23P) complex; source: E. coli ∆slyD BL21(DE3), co-expressed with protein E and SlyD, purified as the YES complex (DDM, NiNTA, SEC)
A word on the stoichiometry N: it is a count of units in the complex or per binding partner. As to B1, the “stoichiometry N” value worked out at 2.

Values taken from paper PMC10914600, “Synthesis of lipid-linked precursors of the bacterial cell wall is governed by a feedback control mechanism in Pseudomonas aeruginosa” (Nature Microbiology, 2024).
